Laboratory results published in US20160193316A1 (priority 1994, published 2016).
Read-outs that look alike come from different tables or passages of the source. No end group written: not given here.

Legend:
[1] = target: T1, DRB1*1101 (DR5w11) (Homo sapiens, UniProt P01903+P01911, A100R/A169T/A87E/I96F/K41T/L162R/M171V/P40S/Q125H/Q178H/Q39Y/Q99D/R42S/S66Y/T262R/V115G/W38E); assay: biochemical; type: binding
T1 construct: endogenous in cells; host or cells: Sweig

[2] = target: T2, DRB1*0901 (DR9) (Homo sapiens, UniProt P01903+P01911, A100R/A103E/D57H/D86V/F55Y/F60I/F76Y/I96F/K127E/L162R/M171V/P40D/Q125H/Q99R/R33Q/R42F/S133A/S66N/T210M/V115G/W38K/Y107V/Y59G/Y89S); assay: biochemical; type: binding
T2 construct: endogenous in cells; host or cells: HID

[3] = target: T3, DRB1*1302 (DR6w19) (Homo sapiens, UniProt P01903+P01911, A100E/A169T/K41T/L162R/M171V/P40S/Q125H/Q178H/Q39Y/Q99D/R42S/S66N/T262R/V115G/W38E/Y61H); assay: HLA class II peptide binding assay; details: for DR6w19 binding data: Table XIXb
T3 construct: endogenous in cells; host or cells: H0301
T3 sequence (P01903 26-254, other chains not shown): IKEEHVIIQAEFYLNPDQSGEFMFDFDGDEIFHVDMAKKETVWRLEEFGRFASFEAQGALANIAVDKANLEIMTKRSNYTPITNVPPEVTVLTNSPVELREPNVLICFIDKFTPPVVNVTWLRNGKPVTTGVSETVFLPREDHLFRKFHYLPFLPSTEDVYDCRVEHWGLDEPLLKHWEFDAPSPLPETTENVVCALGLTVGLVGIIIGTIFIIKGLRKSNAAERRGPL

[4] = target: T4, DRB1*0802 (DR8w2) (Homo sapiens, UniProt P01903+P01911, A100R/A103L/A169T/F76Y/H45Y/I96F/K41T/L162R/M171V/P40S/Q125H/Q178H/Q39Y/Q99D/R218S/R42G/S66Y/V115G/W38E); assay: biochemical; type: binding
T4 construct: endogenous in cells; host or cells: OLL

[5] = target: T5, DRB1*0101 (DR1) (Homo sapiens, UniProt P01903+P01911, A100R/D57E/F55L/F60I/F76Y/I96L/L162R/M171V/P40L/Q125E/R42F/V115G/Y59C); assay: HLA class II peptide binding assay; details: for DR1 binding information: DR3a motif peptides, unit not given, exemplary 15-mer containing the core sequence; for DR1 binding data: Table XIXb, Malaria Super Motif Peptides With Binding Data
T5 construct: endogenous in cells; host or cells: LG2
T5 sequence (P01903 26-254 partner, other chains not shown): as the sequence (P01903 26-254, other chains not shown) above

[6] = target: T6, DRB1*0701 (DR7) (Homo sapiens, UniProt P01903+P01911, A100R/A102G/A103Q/D57E/D86V/E43K/F76Y/K127E/L162R/M171V/P40G/Q125H/Q99D/R33Q/R42Y/R54Q/S133A/S66F/T210M/V115G/Y107V/Y59L/Y89S); assay: biochemical; type: binding
T6 construct: endogenous in cells; host or cells: Pitout

[7] = target: T7, DRB1*1501 (DR2w2β1) (Homo sapiens, UniProt P01903+P01911); assay: HLA class II peptide binding assay; details: for DR2w2β1 binding data: Table XIXb
T7 construct: expressed in transfected cells; host or cells: L466.1 (fibroblasts)

[8] = target: T8, DRB1*0301 (DR3) (Homo sapiens, UniProt P01903+P01911, A100K/A102G/A103R/A169T/F55Y/I96L/K41T/L162R/M171V/P40S/Q125H/Q178H/Q39Y/R42S/S66N/T106N/T262R/W38E/Y61H); assay: HLA class II peptide binding assay (pH 4.5); details: for Alleles bound (DR3): binding to DR3, Table XXXIV; for DR3 binding information: unit not given; for DR3 binding data: Table XIXb
T8 construct: endogenous in cells; host or cells: MAT

[9] = target: HLA-A*0201 (Homo sapiens, UniProt P04439, D140Y/D185E/D98H/E176V/E277Q/G131W/G231S/I119V/I121R/I166T/I218V/L300P/L318F/N151K/N90K/P208A/P217A/Q86G/Q94H/R138H/R169H/T345S); assay: HLA class I peptide binding assay
[10] = target: T9, DRB1*1201 (DR5w12) (Homo sapiens, UniProt P01903+P01911, A100R/A169T/D57E/D86V/F55L/H45Y/K41T/L162R/M171V/P40S/Q125H/Q178H/Q39Y/Q99D/R42G/S66L/T262R/V114A/V67L/W38E/Y59H/Y61H/Y89S); assay: HLA class II peptide binding assay; details: for DR5w12 binding information: DR3a motif peptides, unit not given, exemplary 15-mer containing the core sequence; for DR5w12 binding data: Table XIXb
T9 construct: endogenous in cells; host or cells: Herluf

[11] = target: T10, DRB4*0101 (DRw53) (Homo sapiens, UniProt P01903+P13762, G164S); assay: HLA class II peptide binding assay (pH 5.0); details: for DRw53 binding information: DR3a motif peptides, unit not given, exemplary 15-mer containing the core sequence; for DRw53 binding data: Table XIXb
T10 construct: expressed in transfected cells; host or cells: L257.6 (fibroblasts)

[12] = target: T11, DRB5*0101 (DR2w2β2) (Homo sapiens, UniProt P01903+Q30154); type: binding
T11 construct: expressed in transfected cells; host or cells: L416.3 (fibroblasts) or GM3107

[13] = target: T12, DRB1*0401 (DR4w4) (Homo sapiens, UniProt P01903+P01911, A100K/A169T/F76Y/I96L/K127E/L162R/M171V/N62H/P40V/Q125Y/R42H/S133A/S149N/S66Y/V115G/V209L/W38E); assay: HLA class II peptide binding assay; details: for DR4w4 binding information: DR3a motif peptides, unit not given, exemplary 15-mer containing the core sequence; for DR4w4 binding data: Table XIXb
T12 construct: endogenous in cells; host or cells: Preiss
T12 sequence (P01903 26-254 partner, other chains not shown): as the sequence (P01903 26-254, other chains not shown) above

[14] = target: T13, DRB1*0405 (DR4w15) (Homo sapiens, UniProt P01903+P01911, A100R/A169T/D86S/F76Y/I96L/K127E/L162R/M171V/N62H/P40V/Q125Y/R42H/S133A/S149N/S66Y/V115G/V209L/W38E); assay: HLA class II peptide binding assay; details: for DR4w15 binding information: DR3a motif peptides, unit not given, exemplary 15-mer containing the core sequence; for DR4w15 binding data: Table XIXb
T13 construct: endogenous in cells; host or cells: KT3

[15] = target: HLA-A*1101 (Homo sapiens, UniProt P04439, A114D/D185E/E176A/F33Y/L180Q/S129P/T187R); assay: HLA class I peptide binding assay; details: Table XVII, malaria A11 motif peptides; binding value unit not given
[16] = Malaria A02 motif peptides, Table VIII, unit not given
[17] = DR3a motif peptides, unit not given, exemplary 15-mer containing the core sequence
[18] = DR3a motif peptides, exemplary 15-mer containing the core sequence

T1 sequence (P01903 26-254, other chains not shown): as above

Row | Compound | A*0201 (binding information) [9, 16] | DR5w11 binding data [1] | DR9 binding data [2] | DR6w19 binding data [3] | DR5w12 binding data [10] | DR8w2 binding data [4] | DR1 binding data ([5]; DR1) | DR7 binding data [6] | DR2w2β1 binding data [7] | DR3 binding data [8] | DR2w2β2 binding data [12] | DR4w4 binding data [13] | DR4w15 binding data [14] | further results
1 | CC(C)C[C@H](NC(=O)[C@H](CC(N)=O)NC(=O)[C@H](CS)NC(=O)[C@@H](N)CCCCN)C(=O)N[C@@H](Cc1ccc(O)cc1)C(=O)N[C@@H](C)C(=O)N[C@@H](CC(=O)O)C(=O)N[C@@H](CO)C(=O)N[C@@H](C)C(=O)N[C@@H](Cc1c[nH]c2ccccc12)C(=O)N[C@@H](CCC(=O)O)C(=O)N[C@@H](CC(N)=O)C(=O)N[C@H](C(=O)N[C@@H](CCCCN)C(=O)N[C@@H](CC(N)=O)C(=O)O)C(C)C [Peptide 35.0172] | – | – | – | – | – | – | – | – | – | – | – | – | – | IC50 [1]: > 20 µM; IC50 [2]: > 20 µM; IC50 [3]: 11.1 µM; IC50 [4]: > 20 µM; IC50 [5]: 23400 nM; IC50 [6]: > 20 µM; IC50 [7]: 18.2 µM; IC50 [8]: 857 nM; Alleles bound (DR3) [8]: DR3
2 | ALLQVRKHL | 0.0010 | – | – | – | – | – | – | – | – | – | – | – | – | DR3 binding information ([8]; Malaria DR3b motif peptides): -0.0033
3 | AMICLIQQLNL | 0.0006 | – | – | – | – | – | – | – | – | – | – | – | – | –
4 | GLIMVLSFL | – | – | – | – | – | – | – | – | – | – | – | – | – | A*0201 (binding information) [9]: 0.0630
5 | ILSVSSFLFV | – | – | – | – | – | – | – | – | – | – | – | – | – | A*0201 (binding information) [9]: 0.0300
6 | ILTDGIPDS | – | – | – | – | – | – | – | – | – | – | – | – | – | DR5w11 binding information [1]: -0.0004; DR9 binding information [2]: 0.0014; DR6w19 binding information [3, 17]: 0.0002; DR5w12 binding information [10]: 0.0002; DR8w2 binding information [4]: -0.0003; DRw53 binding information [11]: 0.0480; DR1 binding information [5]: 0.0002; DR7 binding information [6]: 0.0046; DR2w2β1 binding information [7, 17]: 0.0001; DR3 binding information [8, 18]: 0.1400; DR2w2β2 binding information [12]: -0.0006; DR4w4 binding information [13]: 0.3600; DR4w15 binding information [14]: -0.0014
7 | KLRICPICHKKL | 0.0001 | – | – | – | – | – | – | – | – | – | – | – | – | –
8 | LAGGLALLA | 0.0001 | – | – | – | – | – | – | – | – | – | – | – | – | –
9 | LAILSVSSF | – | 0.0370 | 0.1100 | 0.0930 | 0.1200 | 0.0013 | 0.1000 | 0.0500 | 0.5000 | -0.0043 | 0.0130 | 0.0078 | 0.0270 | –
10 | LALFFIIFN | – | -0.0005 | -0.0018 | -0.0002 | 0.0002 | -0.0007 | 0.0006 | 0.0056 | 0.0180 | -0.0043 | -0.0021 | 0.0047 | 0.0100 | –
11 | LATSVLAGL | – | 0.0210 | 2.6000 | 0.0072 | 0.0073 | 0.1300 | 1.2000 | 0.6500 | 0.0018 | 0.0010 | 0.0700 | 3.2000 | 0.1200 | –
12 | LIFFDLFLV | 0.0890 | 0.0019 | -0.0003 | 0.0006 | 0.0016 | 0.0007 | 0.0006 | 0.0028 | 0.0048 | -0.0008 | 0.0019 | 0.0130 | -0.0009 | –
13 | LLGGVCLVL | 0.0038 | – | – | – | – | – | – | – | – | – | – | – | – | –
14 | LLMDCSGSI | 0.0460 | – | – | – | – | – | – | – | – | – | – | – | – | DR5w11 binding information [1]: -0.0002; DR5w12 binding information [10]: 0.0001; DR8w2 binding information [4]: 0.0014; DRw53 binding information [11]: 0.0057; DR1 binding information [5]: 0.0041; DR7 binding information [6]: 0.0072; DR3 binding information [8, 18]: 0.0300; DR2w2β2 binding information [12]: 0.0250; DR4w4 binding information [13]: 0.0340; DR4w15 binding information [14]: 0.0028
15 | PDSIQDSLKESRKLN [Peptide 35.0171] | – | – | – | – | – | – | – | – | – | – | – | – | – | IC50 [1]: > 20 µM; IC50 [2]: > 20 µM; IC50 [3]: > 20 µM; IC50 [4]: > 20 µM; IC50 ([5]; read-out: Binding capacity (IC50 nM) DR1, DR1): > 20000 nM; IC50 [6]: > 20 µM; IC50 [7]: 2.29 µM; Alleles bound (DR3) [8]: DR3
16 | QLVVILIDGI | 0.0002 | – | – | – | – | – | – | – | – | – | – | – | – | –
17 | SVLACLLGNV | 0.0022 | – | – | – | – | – | – | – | – | – | – | – | – | –
18 | VIGPFMKAV | 0.0004 | – | – | – | 0.0920 | 0.0230 | – | – | – | – | – | -0.0020 | – | –
19 | VLLGGVCLVL | 0.0290 | – | – | – | – | – | – | – | – | – | – | – | – | –
20 | VSTVLLGGV | – | -0.0002 | -0.0005 | 0.0006 | 0.0005 | -0.0003 | 0.0140 | -0.0003 | 0.0001 | -0.0008 | -0.0005 | 0.0016 | -0.0014 | DRw53 binding data [11]: -0.0005
21 | VVPGAATPY | – | 0.0036 | 0.0200 | 0.0017 | 0.0061 | 0.0026 | 0.1100 | 0.0160 | 0.0008 | -0.0008 | 0.0053 | 0.0057 | -0.0014 | A*1101 binding information [15]: 0.0002
22 | YQNNIVDEI | – | -0.0004 | -0.0005 | 0.0810 | 0.0001 | -0.0003 | 0.0001 | -0.0003 | 0.0001 | 0.0026 | -0.0006 | -0.0006 | -0.0014 | DRw53 binding data [11]: 0.0850
